The source of these data is publication PMC12102759 (2025).

The labels stand for the following.
B1: MXI1 peptide 6-21 (Max-interacting protein 1), 16-mer library wild type / SIN3A PAH2 (SIN3A PAH domain, residues 295-383) (parent complex)
chain 1: MINVQRLLEAAEFLER
chain 2: SLQNNQPVEFNHAINYVNKIKNRFQGQPDIYKAFLEILHTYQKEQRNAKEAGGNYTPALTEQEVYAQVARLFKNQEDLLSEFGQFLPDA
B2: PEX5 peptide 110-125 (Peroxisomal targeting signal 1 receptor), 16-mer library wild type / PEX14 Pex14 (PEX14 PEX14, residues 16-84) (parent complex)
chain 1: ADLALSENWAQEFLAA
chain 2: TPGSENVLPREPLIATAVKFLQNSRVRQSPLATRRAFLKKKGLTDEEIDMAFQQSGTAADEPSSLGPAT

The variants in one test derive from B1. Description: proteomic peptide phage display deep mutational scan (ProP-PD DMS): M13 P8 16-mer library selected against immobilised GST-tagged bait for four days (rounds), NGS of the eluted pools per day and pseudo-replica; bait immobilised on MaxiSorp plates (10 µg), library pre-cleared on GST, 2 h binding at 4 °C, five washes; one round per day, days 1-4; value from days 2 and 3.
With chain 1 MINVQRLLEANEFLER, the screen value is 0.000651 average fractional NGS count over selection days 2 and 3 (reads of this peptide / all reads for the bait, averaged over ….

For chain 1 MINVQRLLEAQEFLER, the screen value is 0.000778 average fractional NGS count over selection days 2 and 3 (reads of this peptide / all reads for the bait, averaged over ….

For the variant chain 1 MINVQRLLEAEEFLER, the screen value is 0.000155 average fractional NGS count over selection days 2 and 3 (reads of this peptide / all reads for the bait, averaged over ….

With chain 1 MINVQRLLEAGEFLER, the screen value was 0.000249 average fractional NGS count over selection days 2 and 3 (reads of this peptide / all reads for the bait, averaged over ….

In the case of chain 1 MINVQRLLEAWEFLER, the screen value is 0.00145 average fractional NGS count over selection days 2 and 3 (reads of this peptide / all reads for the bait, averaged over ….

For chain 1 MINVQRLLEAIEFLER, the screen value was 0.000346 average fractional NGS count over selection days 2 and 3 (reads of this peptide / all reads for the bait, averaged over ….

Take chain 1 MINVQRLLEAAIFLER: the screen value is 0.000347 average fractional NGS count over selection days 2 and 3 (reads of this peptide / all reads for the bait, averaged over ….

Consider chain 1 MINVQRLLEAARFLER, for which the screen value was 0.00176 average fractional NGS count over selection days 2 and 3 (reads of this peptide / all reads for the bait, averaged over ….

Regarding chain 1 MINVQRLLEAANFLER, the screen value is 0.000144 average fractional NGS count over selection days 2 and 3 (reads of this peptide / all reads for the bait, averaged over ….

chain 1 MINVQRLLEAATFLER: the screen value is 0.000504 average fractional NGS count over selection days 2 and 3 (reads of this peptide / all reads for the bait, averaged over ….

For chain 1 MINVQRLLEAAHFLER, the screen value was 0.00554 average fractional NGS count over selection days 2 and 3 (reads of this peptide / all reads for the bait, averaged over ….

Regarding chain 1 MINVQRLLEAAGFLER, the screen value was 0.00105 average fractional NGS count over selection days 2 and 3 (reads of this peptide / all reads for the bait, averaged over ….

In the case of chain 1 MIEVQRLLEAAEFLER, the screen value was 0.000543 average fractional NGS count over selection days 2 and 3 (reads of this peptide / all reads for the bait, averaged over ….

Take chain 1 MIKVQRLLEAAEFLER: the screen value was 0.000249 average fractional NGS count over selection days 2 and 3 (reads of this peptide / all reads for the bait, averaged over ….

In the case of chain 1 MIMVQRLLEAAEFLER, the screen value is 0.0121 average fractional NGS count over selection days 2 and 3 (reads of this peptide / all reads for the bait, averaged over ….

In the case of chain 1 MITVQRLLEAAEFLER, the screen value was 0.00466 average fractional NGS count over selection days 2 and 3 (reads of this peptide / all reads for the bait, averaged over ….

In the case of chain 1 MIVVQRLLEAAEFLER, the screen value was 0.000212 average fractional NGS count over selection days 2 and 3 (reads of this peptide / all reads for the bait, averaged over ….

Regarding chain 1 MINVQRLLSAAEFLER, the screen value is 0.0016 average fractional NGS count over selection days 2 and 3 (reads of this peptide / all reads for the bait, averaged over ….

With chain 1 MINVQRLLMAAEFLER, the screen value is 0.000348 average fractional NGS count over selection days 2 and 3 (reads of this peptide / all reads for the bait, averaged over ….

On to chain 1 MINVQRLLFAAEFLER, for which the screen value is 0.000875 average fractional NGS count over selection days 2 and 3 (reads of this peptide / all reads for the bait, averaged over ….

On to chain 1 MINVQRLLIAAEFLER, for which the screen value was 0.000125 average fractional NGS count over selection days 2 and 3 (reads of this peptide / all reads for the bait, averaged over ….

Consider chain 1 MINVQRLLGAAEFLER, for which the screen value was 0.000184 average fractional NGS count over selection days 2 and 3 (reads of this peptide / all reads for the bait, averaged over ….

With chain 1 MINVQRLLEWAEFLER, the screen value is 0.000448 average fractional NGS count over selection days 2 and 3 (reads of this peptide / all reads for the bait, averaged over ….

Variants of B2 are the subject of the next test. The test is described as above.
Turning to chain 1 ADLALSDNWAQEFLAA, the screen value was 0.00312 average fractional NGS count over selection days 2 and 3 (reads of this peptide / all reads for the bait, averaged over ….

In the case of chain 1 ADLALSHNWAQEFLAA, the screen value was 0.00742 average fractional NGS count over selection days 2 and 3 (reads of this peptide / all reads for the bait, averaged over ….

For chain 1 ADLALSVNWAQEFLAA, the screen value is 0.000676 average fractional NGS count over selection days 2 and 3 (reads of this peptide / all reads for the bait, averaged over ….

With chain 1 ADLALSMNWAQEFLAA, the screen value is 0.0015 average fractional NGS count over selection days 2 and 3 (reads of this peptide / all reads for the bait, averaged over ….

Take chain 1 ADLAYSENWAQEFLAA: the screen value is 0.00132 average fractional NGS count over selection days 2 and 3 (reads of this peptide / all reads for the bait, averaged over ….

chain 1 ADLAASENWAQEFLAA: the screen value was 0.00106 average fractional NGS count over selection days 2 and 3 (reads of this peptide / all reads for the bait, averaged over ….

Regarding chain 1 ADLAQSENWAQEFLAA, the screen value was 0.000395 average fractional NGS count over selection days 2 and 3 (reads of this peptide / all reads for the bait, averaged over ….

As to chain 1 ADLALSENWHQEFLAA, the screen value was 0.013 average fractional NGS count over selection days 2 and 3 (reads of this peptide / all reads for the bait, averaged over ….

With chain 1 ADLALSENWGQEFLAA, the screen value is 0.00143 average fractional NGS count over selection days 2 and 3 (reads of this peptide / all reads for the bait, averaged over ….

chain 1 ADLALSENWRQEFLAA: the screen value is 0.000397 average fractional NGS count over selection days 2 and 3 (reads of this peptide / all reads for the bait, averaged over ….

For chain 1 ADLALSENWAQEFLVA, the screen value was 0.000924 average fractional NGS count over selection days 2 and 3 (reads of this peptide / all reads for the bait, averaged over ….

As to chain 1 ADLALSENWAQEFLWA, the screen value is 0.00189 average fractional NGS count over selection days 2 and 3 (reads of this peptide / all reads for the bait, averaged over ….

As for chain 1 ADLALSENWAQEWLAA, the screen value was 0.000735 average fractional NGS count over selection days 2 and 3 (reads of this peptide / all reads for the bait, averaged over ….

With chain 1 AHLALSENWAQEFLAA, the screen value is 0.004 average fractional NGS count over selection days 2 and 3 (reads of this peptide / all reads for the bait, averaged over ….

With chain 1 AELALSENWAQEFLAA, the screen value was 0.000736 average fractional NGS count over selection days 2 and 3 (reads of this peptide / all reads for the bait, averaged over ….

Take chain 1 YDLALSENWAQEFLAA: the screen value is 0.000485 average fractional NGS count over selection days 2 and 3 (reads of this peptide / all reads for the bait, averaged over ….

chain 1 PDLALSENWAQEFLAA: the screen value was 0.000566 average fractional NGS count over selection days 2 and 3 (reads of this peptide / all reads for the bait, averaged over ….

For the variant chain 1 FDLALSENWAQEFLAA, the screen value was 0.00127 average fractional NGS count over selection days 2 and 3 (reads of this peptide / all reads for the bait, averaged over ….

With chain 1 ADLALSENWAQEFDAA, the screen value is 0.000896 average fractional NGS count over selection days 2 and 3 (reads of this peptide / all reads for the bait, averaged over ….

Take chain 1 ADLALSENWAQEFRAA: the screen value is 0.000944 average fractional NGS count over selection days 2 and 3 (reads of this peptide / all reads for the bait, averaged over ….

On to chain 1 ADLALSENWAQMFLAA, for which the screen value was 0.000654 average fractional NGS count over selection days 2 and 3 (reads of this peptide / all reads for the bait, averaged over ….

Regarding chain 1 ADLNLSENWAQEFLAA, the screen value was 0.000393 average fractional NGS count over selection days 2 and 3 (reads of this peptide / all reads for the bait, averaged over ….

As for chain 1 ADLLLSENWAQEFLAA, the screen value is 0.000672 average fractional NGS count over selection days 2 and 3 (reads of this peptide / all reads for the bait, averaged over ….

In the case of chain 1 ADLTLSENWAQEFLAA, the screen value is 0.00418 average fractional NGS count over selection days 2 and 3 (reads of this peptide / all reads for the bait, averaged over ….

With chain 1 ADLALSENWAWEFLAA, the screen value was 0.0122 average fractional NGS count over selection days 2 and 3 (reads of this peptide / all reads for the bait, averaged over ….

On to chain 1 ADLALSENWAYEFLAA, for which the screen value was 0.000918 average fractional NGS count over selection days 2 and 3 (reads of this peptide / all reads for the bait, averaged over ….

For chain 1 ADLALSEIWAQEFLAA, the screen value was 0.0016 average fractional NGS count over selection days 2 and 3 (reads of this peptide / all reads for the bait, averaged over ….

chain 1 ADLALSEEWAQEFLAA: the screen value was 0.00099 average fractional NGS count over selection days 2 and 3 (reads of this peptide / all reads for the bait, averaged over ….

Turning to chain 1 ADLALSEFWAQEFLAA, the screen value was 0.00191 average fractional NGS count over selection days 2 and 3 (reads of this peptide / all reads for the bait, averaged over ….

On to chain 1 ADLALSESWAQEFLAA, for which the screen value was 0.00269 average fractional NGS count over selection days 2 and 3 (reads of this peptide / all reads for the bait, averaged over ….

For the variant chain 1 ADPALSENWAQEFLAA, the screen value was 0.00046 average fractional NGS count over selection days 2 and 3 (reads of this peptide / all reads for the bait, averaged over ….

Turning to chain 1 ADFALSENWAQEFLAA, the screen value is 0.000885 average fractional NGS count over selection days 2 and 3 (reads of this peptide / all reads for the bait, averaged over ….

As to chain 1 ADHALSENWAQEFLAA, the screen value is 0.00618 average fractional NGS count over selection days 2 and 3 (reads of this peptide / all reads for the bait, averaged over ….
